From the DeepSol protein solubility set

Assay: soluble on expression in E. coli; label from the status in PepcDB or PDB records

Sequence | soluble on expression in E. coli
MAHHHHHHMSSSVQNHQQTLLQARTHVAARDTTAVAILGAKAGSNGSSQSFRPAAQCLEHTQSSFNQTDISQRPPFIASEAATVSLLRRMEVLDNGRAGSTSDNAAANVVPSHQSVQRQRVTAHTLNKTTLANNDVTGEAPKPPSMAESTLKAGAQRRRIVKSNRNAVASRGPSESLKKCGPAVNVNDDGHRNDSAMAMNVPTQITVAARGGARGRVFHSNPFVTRNGKRFSAQNARRGISTATLSPPHTAITVSDDYSADFSVHDAFDVLSPMTPANPTYQKTLQVQQQQQWHSGSWIYDLNAGANTDSFTDDGSPIEFVVEDFELDDTVLGGTKHNDFGGQASKGGPDRFSTAAASNPDRLRQQNHARWAASRGPTRGATLASGTTATQQAGGARHLTTKSTMGSDPAGPDSPSGVLKERARLAKGVKLHNGPPMIKIPPLALDVINANRKTGKASYKVSHPKPGVVVPDIESSSTECSDMPNNSSLQGNFEALGVKVSNSPLGGRGSIEGRGNDKRVGGVHNGSLLSGSAVDGHRAGAAGSSAYKGSLQNCGRHGMLSMPFDGTSNDSQVHEASPSRNAREGFRGNSGGFGMHGGPFGSVQRQRWLVEADKHSSGESRPPMTNARKKAKCCVVM | not soluble
MAHHHHHHMSSTNPSGCAGLVAASVTTAASTGTTAAATLAARSPTPPSVPASNSNNSGPGAAVASAPARWRIPSFRPQEYLRGYLFGGVGMGVPELQQYVGKVEPMIREMLEHTQQVHSIHSLRSHFQKSDEPGDEEVVLRWPSHLLQFMEFYNTTRALEDPENQDAGVKEAYLGLMRRLYYTEPRRRDCIPTKYLDPRSLLLVRMWWSMDAAQRKQWPLSLMDHKALNVIQIKDRYLCSYVMTAMQAKQYLMRLVARPEMRAMIDQWRRERNDGSTGAGSPQRSKL | soluble
MAHHHHHHMSTKLEQENCKLLENIEVISTWSSNNDSNMESFVEPSELDIKDDNEKCLNILNDNLIYDFEKEEDEKKKKNKKNEKSSSNIDLEYDTMKKYIKCIIHNKEKEEFYSFMKYICDSDLFLTFVQLFLDLIKNKDSNLNPHDYLINFFQINIEEENNTNSIKRKNLIKENNFYKKQNEELKKQINIIQVEIMDMKKKNMCNYITNFFFKDNKQEYDASKIFQKVNLYYENIRIEPPFYFTKDTFNLFINYLSDNKRNYIYNIITDMYNIYETNHTLFITKFYKKLTNFIEFYRSFDK | not soluble
MAHHHHHHMSTTQAALFPFRHHWRVPVTLAINTTVPNGAPSATESGGCTQPQSPGEQAAAHAAVTPDGIDAVVTDFVFAQSGRRLLLVRGDSPPDLRLCLSEDSPNGPLSGALGAGIAVEASPLQQAHRALCTGAELIHHVSTLRDQQLEGHRPCDGDTRASALELCVAGYPQGHPLDRTWGATSAAYSAPAEAAATGSVATRDSSVAAARQRSLEFLRAFEEDFDAAEHAFTAAVRVAKRRACVVSAEKRSSDISVDDGTPSAASGEPRERARHLCTPQAVMPELKEPCRTLGRLGAVRRLWTSSSIYAPYVRAACIHRMLHEKVLLRSPSEPEHRRIRSGSFHGGAAAPVIVTQMITTAQGFTGYVDEIQRGLRAWAATAGGGEQPEPAGDGPQQQHPVHAAAPTALTPPISVIPGVLLPHPTDVHVLLRSLYYTKVIPSARMQKALEVYASELMIAWRQLADEPPRRKREPALQDDTFLQALTESNGSAATLEVSEDRVAQVEARVREVRRCASCRLTSVWLSETVDLLHDLQRHGQARLHLFTMFNDKVGVRVAQLLAAYDAPRGASAEQ | not soluble
MAHHHHHHMTGWRQIVRCSICHLNRCAYPVTPALTDLKHLKHMWTLHGEAAPTADKQCLLLALAAEAGEQLAELNSRQAAAQAKAKEAQLAIAKHLGMLEMAVEASSYKIVDSTTPVNADSSANTAKLSLKIARGNNAGCSLTKAGEGNPFADDPLNEQNILNLKLTAATDVVKSLKETAISIRSASSNCPSDSTGKTGIKEALGSCNLGGSAEYEFTTAAATTGNAQSSVPVFKEESTTTNCGEVSGLSAEAMSPAQKLAKAICEAIKAKAGEGKTLRTATGETLSNRKTIQTFLRNCVPEFQKKN | not soluble
MAHHHHHHMTSQTTTAVFSSDLQTFIVTKYDPLLSIVKELNDKLQNSEKDKYHLEKRIIKLEKQMVLLLEKLEVSDILFDNEEKEKKEEPRKNQKIESEENLLAPWLFSCQLGTPLSSLQVLLEFNVNNTIELNVKLWKREEDMWINVLEDISSNYNNYLPDSLSLLDLRKAARKCLLNICMNEILIVLRNVPGKSQALYNTTTMTLVAILASAIYEAWKRIELTDPVSLGRIVLVLDGMNCINKKREDVGSRLRAGNKKLKIEPLN | not soluble
